# Experimental data taken from US20170166894A1, “APTAMERS FOR TOPICAL DELIVERY” (GlaxoSmithKline Intellectual Property Development Limited, published 2017).
# Legend:
# [1] = target: T1, IL-23 (p40/p19 heterodimer), endogenous from activated monocytes (Homo sapiens, UniProt P29460;Q9NPF7 SEQ:23-328,SEQ:20-189); experiment: cell_activity; STAT3 activation in PHA blasts, endogenous IL-23
# Procedure: Additionally, the ability of ARC20122 as well as its minimer ARC32225 to inhibit IL-23 dependent stimulation of STAT3 activity in PHA-Blast cells was tested. This assay utilized endogenous IL-23 produced from purified monocytes as described herein. […] ARC32225 performed slightly better than its parent clone with an IC₅₀ of 0.075 nM±0.030 nM. In both cases, the activity was markedly better than the control anti-p19 antibody, IC₅₀=0.69 nM±0.12 nM.
# (§1) The ability of ARC32225 to inhibit endogenous IL-23 activation of PHA/IL-2 activated T-cells was tested by measuring levels of phospho-STAT3 (“phospho-STAT3 assay”). The binding of IL-23 to its receptor on activated T-cells stimulates several STAT pathways, including STAT3. Peripheral Blood Mononuclear Cells (PBMC) from fresh human blood were isolated by centrifugation in a Histopaque gradient and treated with PHA/IL-2 to enrich for T-cells and to upregulate IL-23 receptors. Cells were serum starved and treated with endogenous IL-23 for 15 minutes, and then lysed. Relative levels of phospho-STAT3 in IL-23 treated lysates, in the presence and absence of ARC32225 or a neutralizing p19 antibody, were measured by ELISA (Cell Signaling Technologies, Danvers, Mass.). Titrations of aptamer/antibody were used to generate inhibition curves from which IC₅₀ determinations were made.
# [2] = target: IL-23 (p40/p19 heterodimer), recombinant human (Homo sapiens, UniProt P29460;Q9NPF7 SEQ:23-328,SEQ:20-189); experiment: in presence of competitor tRNA (18,000-fold excess); settings: tags: R&D Systems 1290-IL-010/CF (catalogue number stated for the selection)
# Chain of IL-23 (p40/p19 heterodimer), recombinant human (P29460 23-328, chain 1 of 2): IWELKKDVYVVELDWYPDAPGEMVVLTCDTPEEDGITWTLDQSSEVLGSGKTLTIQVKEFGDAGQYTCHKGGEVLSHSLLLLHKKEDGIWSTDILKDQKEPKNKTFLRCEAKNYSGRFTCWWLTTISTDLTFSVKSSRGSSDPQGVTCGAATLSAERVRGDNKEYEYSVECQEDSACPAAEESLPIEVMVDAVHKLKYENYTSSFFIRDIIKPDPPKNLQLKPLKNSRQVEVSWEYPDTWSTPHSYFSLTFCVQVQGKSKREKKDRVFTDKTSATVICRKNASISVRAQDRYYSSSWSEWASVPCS
# Chain of IL-23 (p40/p19 heterodimer), recombinant human (Q9NPF7 20-189, chain 2 of 2): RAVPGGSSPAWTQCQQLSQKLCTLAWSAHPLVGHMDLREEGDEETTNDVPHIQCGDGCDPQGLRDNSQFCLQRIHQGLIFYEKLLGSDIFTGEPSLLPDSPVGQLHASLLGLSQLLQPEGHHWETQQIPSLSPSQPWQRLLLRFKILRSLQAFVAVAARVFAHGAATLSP
# [3] = target: T1, IL-23 (p40/p19 heterodimer), endogenous …; experiment: cell_activity; phospho-STAT3 ELISA in PHA/IL-2 T-cells, seven titrations; a separate comparison with ARC20122 gave 0.075±0.030 nM (p832)
# Procedure: as §1
# Percent inhibition was recorded for each concentration tested for all donors (data not shown). Individual IC50 for each donor were also recorded (data not shown).
# [4] = target: T1, IL-23 (p40/p19 heterodimer), endogenous …; experiment: cell_activity; STAT3 inhibition assay; compensatory pair restores activity; IL-23 source not stated for this assay
# [5] = target: T1, IL-23 (p40/p19 heterodimer), endogenous …; experiment: cell_activity; STAT3 inhibition assay; disrupts G2-C30 loop-tail tertiary contact; IL-23 source not stated for this assay
# T1 sequence (P29460 23-328, chain 1 of 2): as the sequence (P29460 23-328, chain 1 of 2) above
# T1 sequence (Q9NPF7 20-189, chain 2 of 2): as the sequence (Q9NPF7 20-189, chain 2 of 2) above
binder,measurement,setting,value
"ARC20122 (ssRNA, 2'-OMe A and G, 2'-F C and U (mA,mG,fC,fU)) RNA: GGAGGGAAAAGUUAUCAGGCUUCUAUCGGGCGCCGCGUUUUCCCUGUGUUAGCCAUCGUCCGACGAGUAGGCUAGUCUGAUGCC",IC50,[1],0.26 nM
same,Kd,[2],9.1 nM
"ARC32225 (ssRNA, mixed 2'-OMe and 2'-F as printed (10 mA, 1 fA, 14 mG, 6 fG, 3 mC, 13 fC, 1 mU, 13 fU); 3' idT) RNA: AGGGAAAUCAGGCUUUAUCGGGCGCCGCUCCCUGUGCCAUCGUCCGAGAGUAGGUAGUCUG",IC50,[3],0.296 nM
"ARC32225 G2A/C30U (ssRNA, mixed 2'-OMe and 2'-F as parent [mixed 2'-OMe and 2'-F as parent (positions not given)]) RNA: AAGGAAAUCAGGCUUUAUCGGGCGCCGCUUCCUGUGCCAUCGUCCGAGAGUAGGUAGUCUGU",IC50,[4],0.5 nM
"ARC32225 G2A (ssRNA, mixed 2'-OMe and 2'-F as parent [mixed 2'-OMe and 2'-F as parent (positions not given)]) RNA: AAGGAAAUCAGGCUUUAUCGGGCGCCGCUCCCUGUGCCAUCGUCCGAGAGUAGGUAGUCUGU",IC50,[5],108 nM
